Reference: patent US20220041746A1 (Sanofi, published 2022)
Values joined by “and” are separate entries in the source; they are usually repeats but may differ in a detail not shown here. Identical values can stand only once. Like-named read-outs stand apart in the source and are kept apart here.

Assays:
[1] = molecular target: T1, human CD38 expressed on the cell surface (human, UniProt P28907 1-300); test: flow cytometry on preB::300.19 cells
T1 construct: whole, on cells; also called hCD38-expressing cells; huCD38

[2] = molecular target: T2, cynomolgus monkey CD38 expressed on the cell surface (cynomolgus monkey, UniProt Q5VAN0 1-301); test: flow cytometry on preB::300.19 cells
T2 construct: whole, on cells; also called cCD38-expressing cells

[3] = molecular target: T2, cynomolgus monkey CD38 expressed on the …; test: flow cytometry on PréB cCD38 cells
Protocol: (§1) The recombinant cell line was described by J. Deckket et al. 2014 Clin. Cancer Res 20:4574-4583. […] Antibody binding was evaluated after centrifugation and resuspension of cells by adding 200 μl/well PBS 1% BSA and read using Guava® easyCyte™ 8HT Flow Cytometry System. Apparent KD and EC50 values were estimated using BIOST®T-BINDING and BIOST®T-SPEED software, respectively.

[4] = molecular target: T1, human CD38 expressed on the cell surface; test: flow cytometry on PréB hCD38 cells
Protocol: as §1

[5] = molecular target: T3, recombinant human CD38 (SPR of Example 4) (human, UniProt P28907 45-300, limits assumed); test: SPR; KD rounded to an integer; first value of the pair, taken for CD3mid
[6] = molecular target: human CD28 (SPR of Example 4) (human, UniProt P10747 19-152, limits assumed); test: as above
[7] = molecular target: T3, recombinant human CD38 (SPR of Example …); test: SPR (column 'KD value against rec. protein by SPR (nM)'); first value of the pair, taken for CD3mid
[8] = molecular target: T1, human CD38 expressed on the cell surface; test: flow cytometry, 'Apparent KD value against rec. cells by FACS (nM)'; single value of the mid/low row, equal to the EC50 of the CD3mid protein in FIG. 6C
Protocol: as §1

[9] = molecular target: T4, hCD38-his (SEQ ID NO: 2) (human, UniProt P28907 45-300); test: ELISA on hCD38::Histag
T4 construct: His-tagged soluble protein derived from isoform A; also called human CD38-histag; hCD38::Histag

[10] = molecular target: T4, hCD38-his (SEQ ID NO: 2); test: ELISA (column ELISA EC50 nM, hu)
[11] = molecular target: T5, cCD38-his (SEQ ID NO: 4) (cynomolgus monkey, UniProt Q5VAN0 46-301); test: ELISA on cynoCD38::Histag [Cont.]
T5 construct: His-tagged soluble protein; also called cyno CD38-histag; cynoCD38::Histag

[12] = molecular target: T5, cCD38-his (SEQ ID NO: 4); test: ELISA (column ELISA EC50 nM, cyno)
[13] = molecular target: T1, human CD38 expressed on the cell surface; test: flow cytometry (column FACS EC50 nM, hu)
Protocol: as §1, with “Clin” for “Clin.”, “μL/well” for “μl/well”, “easvCyte™” for “easyCyte™”, “BIOST@T-BINDING” for “BIOST®T-BINDING”, “BIOST@T-SPEED” for “BIOST®T-SPEED”

[14] = molecular target: T1, human CD38 expressed on the cell surface; test: flow cytometry on preB::300.19 cells, apparent KD
Protocol: as §1, with “Clin” for “Clin.”, “μL/well” for “μl/well”, “easvCyte™” for “easyCyte™”, “BIOST@T-BINDING” for “BIOST®T-BINDING”, “BIOST@T-SPEED” for “BIOST®T-SPEED”

[15] = molecular target: T2, cynomolgus monkey CD38 expressed on the …; test: flow cytometry on preB::300.19 cells, apparent KD
Protocol: as §1, with “Clin” for “Clin.”, “μL/well” for “μl/well”, “easvCyte™” for “easyCyte™”, “BIOST@T-BINDING” for “BIOST®T-BINDING”, “BIOST@T-SPEED” for “BIOST®T-SPEED”

[16] = molecular target: T2, cynomolgus monkey CD38 expressed on the …; test: flow cytometry (column FACS EC50 nM, cyno)
Protocol: as §1, with “Clin” for “Clin.”, “μL/well” for “μl/well”, “easvCyte™” for “easyCyte™”, “BIOST@T-BINDING” for “BIOST®T-BINDING”, “BIOST@T-SPEED” for “BIOST®T-SPEED”

[17] = molecular target: T1, human CD38 expressed on the cell surface; test: flow cytometry (FACS) on 300.19 PreB hCD38 cells
Protocol: as §1, with “Clin” for “Clin.”, “μL/well” for “μl/well”, “easvCyte™” for “easyCyte™”, “BIOST@T-BINDING” for “BIOST®T-BINDING”, “BIOST@T-SPEED” for “BIOST®T-SPEED”

[18] = molecular target: T4, hCD38-his (SEQ ID NO: 2); test: SPR, mAb captured via anti-human Fc, soluble CD38-his injected
Protocol: (§2) The binding properties of the anti-huCD38 mabs were evaluated using a BIAcore 2000 (BIAcore Inc., Uppsala, Ni). […] The surface was regenerated between injections using 30 μL of 50 mM NaOH-1 M NaCl. Individual sensorgrams wore analyzed using BIAsimulation software.

[19] = molecular target: T5, cCD38-his (SEQ ID NO: 4); test: as above
Protocol: as §2

[20] = molecular target: T2, cynomolgus monkey CD38 expressed on the …; test: flow cytometry (FACS) on 300.19 PreB cynoCD38 cells [Cont.]
Protocol: as §1, with “Clin” for “Clin.”, “μL/well” for “μl/well”, “easvCyte™” for “easyCyte™”, “BIOST@T-BINDING” for “BIOST®T-BINDING”, “BIOST@T-SPEED” for “BIOST®T-SPEED”

[21] = molecular target: T4, hCD38-his (SEQ ID NO: 2); test: ELISA on hCD38::Histag; remark: listed apart in the source
[22] = molecular target: T5, cCD38-his (SEQ ID NO: 4); test: ELISA on cynoCD38::Histag [Cont.]; remark: listed apart in the source
[23] = molecular target: T6, CD38 isoform A (SEQ ID NO:1) (human, UniProt P28907 45-300); test: ELISA, plate coated with the CD38 isoform
T6 construct: also called huCD38 isoform A
Protocol: (§3) 96-well plates were coated with either isoform at 0.5 μg/well in PBS and 100 μL/well of antibodies were added to the plate. The plate was incubated at 37° C. for 1 h and washed five times with PBS containing 0.05% Tween-20 (PBS-T). […] Following incubation at 37° C. for 1 h in darkness, plates were washed with PBS-T five times. Antibody binding w as visualized by adding TMB-H2O2 buffer and read at a wavelength of 450 nm. EC50 values were estimated using BIOST@T-SPEED software.

[24] = molecular target: T7, CD38 isoform E (SEQ ID NO:105) (human, UniProt P28907 45-195, limits assumed); test: ELISA, plate coated with the CD38 isoform
T7 construct: also called huCD38 isoform E
Protocol: as §3

[25] = molecular target: T1, human CD38 expressed on the cell surface; test: flow cytometry on preB::300.19 cells, apparent KD; remark: listed apart in the source
Protocol: as §1

[26] = molecular target: T2, cynomolgus monkey CD38 expressed on the …; test: flow cytometry on preB::300.19 cells, apparent KD; remark: listed apart in the source
Protocol: as §1

[27] = molecular target: human CD28 (Cambridge Biologics LLC Cat 03-01-0303) (human, UniProt P10747 19-152); test: ELISA on coated hCD28 IgG4
Protocol: The binding properties of the purified antibodies were analyzed either using ELISA or SPR methods. For ELISA, corresponding antigens for each binding site in the trispecific binding protein were used to coat a 96-well Immuno Plate (Nunc 439454, Thermo Fisher Scientific) overnight at 4° C. using 2 μg/ml each antigen m PBS(pH7.4). The coated plate was blocked using 5% skim milk 12% BSA in PBS for one hour at RT, followed by washing with PBS+[…] three times (Aqua Max 400, Molecular Devices). Serial dilution of antibodies (trispecific and control Abs) were prepared and added onto the ELISA plates (100 μl/well in duplicate), incubated at RT for one hour, followed by washing 5 times with PBS+0.25% Tween 20.
The reaction was terminated by adding 50 μl 1M H₂SO₄, and OD₄₅₀ was measured using SpectraMax M5 (Molecular Devices) and analyzed using SoltMax Pro6.3 software (Molecular Devices). The final data was transferred to GraphPad Prism software (GraphPad Software, CA. USA), and plotted as shown. EC50 was calculated using the same software.

Binder | EC50 [3] | EC50 [4] | EC50 [10] [pM] | EC50 [12] [pM] | EC50 [13] [pM] | Kd [14] [pM] | Kd [15] [pM] | EC50 [16] [pM] | EC50 [17] | Kd [18] [pM] | koff [18] [s⁻¹] | Kd [19] [pM] | koff [19] [s⁻¹] | EC50 [20] | other results
CD38VH1×CD28cvn×CD3mid IgG4 (other, also called CD38VH1×CD28evn×CD3mid; CD38VH1 × CD28cyn × CD3mid IgG4) VH 1: QVQLVQSGAEVVKPGASVKVSCKASGYTFTSYAMHWVKEAPGQRLEWIGYIYPGQGGTNYNQKFQGRATLTADTSASTAYMELSSLRSEDTAVYFCARTGGLRRAYFTYWGQGTLVTVSS VL 1: DIVLTQSPATLSLSPGERATISCRASQSVSSYGQGFMHWYQQKPGQPPRLLIYGASSRATGIPARFSGSGSGTDFTLTISPLEPEDFAVYYCQQNKEDPWTFGGGTKLEIK VH 2: QVQLQESGPGLVKPSQTLSLTCTVSGFSLSDYGVHWVRQPPGKGLEWLGVIWAGGGTNYNPSLKSRKTISKDTSKNQVSLKLSSVTAADTAVYYCARDKGYSYYYSMDYWGQGTTVTVSS VL 2: DIVLTQSPASLAVSPGQRATITCRASESVEYYVTSLMQWYQQKPGQPPKLLIFAASNVESGVPARFSGSGSGTDFTLTINPVEANDVANYYCQQSRKVPYTFGQGTKLEIK VH 3: QVQLVESGGGVVQPGRSLRLSCAASGFTFTKAWMHWVRQAPGKQLEWVAQIKDKSNSYATYYADSVKGRFTISRDDSKNTLYLQMNSLRAEDTAVYYCRGVYYALSPFDYWGQGTLVTVSS VL 3: DIVMTQTPLSLSVTPGQPASISCKSSQSLVHNNANTYLSWYLQKPGQSPQSLIYKVSNRFSGVPDRFSGSGSGTDFTLKISRVEAEDVGVYYCGQGTQYPFTFGSGTKVEIK | 7.5 nM and 1.12 µg/mL | 4.4 nM and 0.663 µg/mL | – | – | – | – | – | – | – | – | – | – | – | – | fold lower apparent affinity than the parental mAb2 antibody [1]: 9 fold; fold lower apparent affinity than the parental mAb2 antibody [2]: 7.5 fold; Kd [5]: 4000 pM; Kd [6]: 18000 pM; Kd [7]: 4000 pM; Kd [8]: 4400 pM
mAb5 (antibody, human IgG1, kappa, V domains shown, also called antiCD38_C2-CD38-1_VH6-VL3) VH: QVQLVQSGAEVVKPGASVKMSCKASGYTFTSFNMHWVKEAPGQRLEWIGYIYPGNGGTNYNQKFQGRATLTADTSASTAYMEISSLRSEDTAVYFCARTGGLRRAYFTYWGQGTLVTVSS VL: DIVLTQSPATLSLSPGERATISCRASESVDSYGNGFMHWYQQKPGQPPRLLIYLASSRATGIPARFSGSGSGTDFTLTISPLEPEDFAVYYCQQNKEDPWTFGGGTKLEIKR | – | – | 140 | 140 | 680 | 680 | 1070 | 1060 | 0.68 nM and 0.102 µg/mL | 312 | 0.000333 | 563 | 0.000125 | 1.06 nM and 0.16 µg/mL | EC50 [9]: 140 pM; EC50 [11]: 140 pM
mAb2 (antibody, human IgG1, kappa, V domains shown, also called antiCD38_C2-CD38-1_VH1-VL1; CD38VH1) VH: QVQLVQSGAEVVKPGASVKVSCKASGYTFTSYAMHWVKEAPGQRLEWIGYIYPGQGGTNYNQKFQGRATLTADTSASTAYMELSSLRSEDTAVYFCARTGGLRRAYFTYWGQGTLVTVSS VL: DIVLTQSPATLSLSPGERATISCRASQSVSSYGQGFMHWYQQKPGQPPRLLIYGASSRATGIPARFSGSGSGTDFTLTISPLEPEDFAVYYCQQNKEDPWTFGGGTKLEIKR | 1 nM and 0.147 µg/mL | 0.5 nM and 0.0694 µg/mL | 110 | 100 | 330 | 330 | 750 | 760 | 330 pM | 332 | 0.00039 | 3440 | 0.000784 | 0.76 nM and 0.114 µg/mL | EC50 [21]: 110 pM; EC50 [22]: 100 pM; EC50 [23]: 140 pM; EC50 [24]: 100 pM; Kd [25]: 500 pM; Kd [26]: 1000 pM
Control CD38xCD3 antibody (bispecific antibody, also called benchmark control CD38×CD3 bispecific antibody) benchmark heavy chain 1 (binds CD38): EVQLVESGGGLVQPGGSLRLSCAASGFTFSYSWMNWVRQAPGKGLEWVSEINPQSSTINYATSVKGRFTISRDNSKNTLYLQMNSLRAEDTAVYYCARYGNWFPYWGQGTLVTVSSASTKGPSVFPLAPSSKSTSGGTAALGCLVKDYFPEPVTVSWNSGALTSGVHTFPAVLQSSGLYSLSSVVTVPSSSLGTQTYICNVNHKPSDTKVDKKVEPKSCDKTHTCPPCPAPPVAGPSVFLFPPKPKDTLMISRTPEVTCVVVDVKHEDPEVKFNWYVDGVEVHNAKTKPREEEYNSTYRVVSVLTVLHQDWLNGKEYKCKVSNKALPAPIEKTISKAKGQPREPQVYTLPPSREEMTKNQVSLTCDVSGFYPSDIAVEWESDGQPENNYKTTPPVLDSDGSFFLYSKLTVDKSRWEQGDVFSCSVMHEALHNHYTQKSLSLSPGK benchmark heavy chain 2 (binds CD3): not shown benchmark light chain (binds CD38): DIVMTQSPSSLSASVGDRVTITCRASQNVDTWVAWYQQKPGQSPKALIYSASYRYSGVPDRFTGSGSGTDFTLTISSLQPEDFATYFCQQYDSYPLTFGGGTKLEIKRTVAAPSVFIFPPSDEQLKSGTASVVCLLNNFYPREAKVQWKVDNALQSGNSQESVTEQDSKDSTYSLSSTLTLSKADYEKHKVYACEVTHQGLSSPVTKSFNRGEC | – | – | – | – | – | – | – | – | – | – | – | – | – | – | binding result [27]: no binding (tested: 10^4 pM)
